Reference: patent US20250011363A1, “OPTIMIZED SHORTENED PEPTIDE THAT BINDS TO ACETYLCHOLINE RECEPTOR, AND USE THEREOF” (SKINMED CO., LTD., priority 2021, published 2025)

These binders were tested against acetylcholine receptor (assay: SPR, AchR immobilized on CM5 chip, peptide 10 µM).
RLIYKK [6mer-2-202] showed a Binding affinity (RU) of 122 RU.
In the case of KSRTKR [6mer-2-203], the Binding affinity (RU) is reported as 135 RU.
RRVQKR [6mer-2-204] gave a Binding affinity (RU) of 142 RU.
For KSFQRK [6mer-2-205], the Binding affinity (RU) was 147 RU.
KWQYKK [6mer-2-206] gave a Binding affinity (RU) of 148 RU.
Binder KWVSKR [6mer-2-207] has a Binding affinity (RU) of 153 RU.
Binder RSQQRK [6mer-2-208] has a Binding affinity (RU) of 128 RU.
Binder RLYYRK [6mer-2-209] has a Binding affinity (RU) of 148 RU.
RSQSRR [6mer-2-210] showed a Binding affinity (RU) of 128 RU.
RGLSRR [6mer-2-211] showed a Binding affinity (RU) of 135 RU.
Work on KWQLRR [6mer-2-212] yielded a Binding affinity (RU) of 148 RU.
KSILRR [6mer-2-213] showed a Binding affinity (RU) of 142 RU.
In the case of RWRSRK [6mer-2-214], the Binding affinity (RU) is reported as 139 RU.
Binder RLYYRR [6mer-2-215] has a Binding affinity (RU) of 123 RU.
KGILKK [6mer-2-216] was tested, and the Binding affinity (RU) was 126 RU.
KLFQKK [6mer-2-217] showed a Binding affinity (RU) of 135 RU.
KGVSKK [6mer-2-218] gave a Binding affinity (RU) of 147 RU.
For RGVSKR [6mer-2-219], the Binding affinity (RU) was 153 RU.
For KVYSKR [6mer-2-220], the Binding affinity (RU) was 135 RU.
KQVRKK [6mer-2-221] gave a Binding affinity (RU) of 153 RU.
RVVYRK [6mer-2-222] showed a Binding affinity (RU) of 127 RU.
Work on KQLTRR [6mer-2-223] yielded a Binding affinity (RU) of 142 RU.
Work on RLFLKR [6mer-2-224] yielded a Binding affinity (RU) of 148 RU.
KRLLRR [6mer-2-225] gave a Binding affinity (RU) of 145 RU.
In the case of RLLCKR [6mer-2-226], the Binding affinity (RU) is reported as 154 RU.
Binder KLQRRK [6mer-2-227] has a Binding affinity (RU) of 147 RU.
KGQCKK [6mer-2-228] gave a Binding affinity (RU) of 141 RU.
RWQSKK [6mer-2-229] gave a Binding affinity (RU) of 127 RU.
Binder RWIQRR [6mer-2-230] has a Binding affinity (RU) of 135 RU.

What follows are binders tested against acetylcholine receptor (assay: SPR, peptide at 10 uM, AchR immobilized).
Work on KRDSMR [6mer-1-683] yielded a Binding affinity of 16 RU.
In the case of KRNNDR [6mer-1-684], the Binding affinity is reported as 20 RU.
RRESWK [6mer-1-685] was tested, and the Binding affinity was 14 RU.
KKYEVR [6mer-1-686] showed a Binding affinity of 25 RU.
Binder RREWIK [6mer-1-687] has a Binding affinity of 23 RU.
In the case of RKDEVR [6mer-1-688], the Binding affinity is reported as 33 RU.
Binder KRCPVR [6mer-1-689] has a Binding affinity of 11 RU.
KREAER [6mer-1-690] was tested, and the Binding affinity was 21 RU.
RKPKAR [6mer-1-691] was tested, and the Binding affinity was 31 RU.
RKNTHK [6mer-1-692] showed a Binding affinity of 22 RU.
Binder RKIDMK [6mer-1-693] has a Binding affinity of 22 RU.
Binder RKYTKR [6mer-1-694] has a Binding affinity of 27 RU.
In the case of KRADVK [6mer-1-695], the Binding affinity is reported as 13 RU.
KKHCNR [6mer-1-696] gave a Binding affinity of 18 RU.
RRPTNR [6mer-1-697] showed a Binding affinity of 13 RU.
Work on KRFNHK [6mer-1-698] yielded a Binding affinity of 27 RU.
Binder RRTTVR [6mer-1-699] has a Binding affinity of 28 RU.
In the case of RKKMWK [6mer-1-700], the Binding affinity is reported as 19 RU.
RRKTWR [6mer-1-701] gave a Binding affinity of 13 RU.
With KRDWVK [6mer-1-702] the Binding affinity was 31 RU.
KKFHPR [6mer-1-703] showed a Binding affinity of 18 RU.
RRMCER [6mer-1-704] showed a Binding affinity of 16 RU.
For KRTEWR [6mer-1-705], the Binding affinity was 12 RU.
KRMKDR [6mer-1-706] gave a Binding affinity of 29 RU.
For KRFWPK [6mer-1-707], the Binding affinity was 26 RU.
In the case of KKKHEK [6mer-1-708], the Binding affinity is reported as 14 RU.
Binder KKFKPK [6mer-1-709] has a Binding affinity of 29 RU.
For KKMHHR [6mer-1-710], the Binding affinity was 21 RU.
Work on RRATHR [6mer-1-711] yielded a Binding affinity of 19 RU.
KKPSNK [6mer-1-712] showed a Binding affinity of 24 RU.
KKATNK [6mer-1-713] gave a Binding affinity of 20 RU.
With KRTSFK [6mer-1-714] the Binding affinity was 25 RU.
With KRMMVK [6mer-1-715] the Binding affinity was 18 RU.
Binder RRMPFK [6mer-1-716] has a Binding affinity of 11 RU.
Work on KRHEDR [6mer-1-717] yielded a Binding affinity of 22 RU.
For RKFKAR [6mer-1-718], the Binding affinity was 23 RU.
KKDAEK [6mer-1-719] was tested, and the Binding affinity was 27 RU.
With RRKHKR [6mer-1-720] the Binding affinity was 11 RU.
RKAMEK [6mer-1-721] was tested, and the Binding affinity was 22 RU.
For RRNKVR [6mer-1-722], the Binding affinity was 12 RU.
For RKMPAK [6mer-1-723], the Binding affinity was 33 RU.
For KRPKNK [6mer-1-724], the Binding affinity was 19 RU.
KKDKPK [6mer-1-725] was tested, and the Binding affinity was 32 RU.
KKHSMK [6mer-1-726] showed a Binding affinity of 33 RU.
RKANGK [6mer-1-727] gave a Binding affinity of 29 RU.
RRDNAR [6mer-1-728] gave a Binding affinity of 23 RU.
KKKSGK [6mer-1-729] showed a Binding affinity of 23 RU.
For KRATFR [6mer-1-730], the Binding affinity was 13 RU.
RRIKAR [6mer-1-731] was tested, and the Binding affinity was 18 RU.
RRAAVR [6mer-1-732] showed a Binding affinity of 26 RU.
